Reference: patent US20250163162A1

T1: IL10Rα/IL2Rγ receptor (human) (UniProt Q13651)
T1 sequence (looked up) 1: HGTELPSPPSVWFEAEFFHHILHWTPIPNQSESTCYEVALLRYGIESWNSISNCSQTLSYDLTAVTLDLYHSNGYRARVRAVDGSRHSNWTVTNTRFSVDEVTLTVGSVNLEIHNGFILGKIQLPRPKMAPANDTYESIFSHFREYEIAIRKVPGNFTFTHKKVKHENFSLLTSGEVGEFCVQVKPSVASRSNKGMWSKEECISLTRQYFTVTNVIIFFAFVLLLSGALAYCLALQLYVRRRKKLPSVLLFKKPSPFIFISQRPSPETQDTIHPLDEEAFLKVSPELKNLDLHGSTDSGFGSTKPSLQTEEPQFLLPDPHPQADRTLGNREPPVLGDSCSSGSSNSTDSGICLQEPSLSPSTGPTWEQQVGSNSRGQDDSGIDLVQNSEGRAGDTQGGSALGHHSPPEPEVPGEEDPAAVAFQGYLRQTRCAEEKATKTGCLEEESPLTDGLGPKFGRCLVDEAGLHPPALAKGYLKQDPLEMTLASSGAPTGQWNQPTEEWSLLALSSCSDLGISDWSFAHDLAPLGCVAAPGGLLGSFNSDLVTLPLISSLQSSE
T1 sequence (looked up) 2: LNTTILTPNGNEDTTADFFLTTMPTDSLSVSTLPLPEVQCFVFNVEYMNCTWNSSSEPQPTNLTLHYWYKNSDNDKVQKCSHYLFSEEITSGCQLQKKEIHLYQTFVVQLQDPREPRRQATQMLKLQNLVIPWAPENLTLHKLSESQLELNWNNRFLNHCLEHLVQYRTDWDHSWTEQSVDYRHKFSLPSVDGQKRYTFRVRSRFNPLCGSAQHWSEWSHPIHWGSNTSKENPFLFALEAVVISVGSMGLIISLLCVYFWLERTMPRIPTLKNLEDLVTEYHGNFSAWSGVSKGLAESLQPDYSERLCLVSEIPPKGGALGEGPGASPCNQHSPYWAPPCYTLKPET


biological target: T1, IL10Rα/IL2Rγ receptor (human); test: cell-based or functional assay

Granzyme A secretion, CD8 T cells, at 0 µM [pg/mL] | Granzyme A secretion, CD8 T cells, at 0.0001 µM [pg/mL] | Granzyme A secretion, CD8 T cells, at 0.001 µM [pg/mL] | Granzyme A secretion, CD8 T cells, at 0.01 µM [pg/mL] | Granzyme A secretion, CD8 T cells, at 0.1 µM [pg/mL] | Granzyme A secretion, CD8 T cells, at 1 µM [pg/mL] | Granzyme A secretion, CD8 T cells, at 10 µM [pg/mL] | Granzyme A secretion, CD8 T cells, at 100 µM [pg/mL] | Granzyme B secretion, CD8 T cells, at 0 µM [pg/mL] | Granzyme B secretion, CD8 T cells, at 0.0001 µM [pg/mL] | Binder
25200 | 22100 | 25900 | 27600 | 30000 | 29800 | 28500 | 25700 | 77700 | 54500 | hIL10Ra_VHH14 - hIL2Rg_VHH19, linker GGGS, tag Fc (bispecific antibody, not shown: a dimerising Fc or GST) QVQLQESGGGSVQAGGSLRLSCGASGYTYSSYCMGWFRQVPGKEREGVAVIDSDGSTSYADSVKGRFTISKDNGKNTLYLQMNSLKPEDTAMYYCAADLGHYRPPCGVLYLGMDYWGKGTQVTVSSGGGSQVQLQESGGGSVQAGGSLRLSCTASGFTFDDREMNWYRQAPGNECELVSTISSDGSTYYADSVKGRFTISQDNAKNTVYLQMDSVKPEDTAVYYCAADFMIAIQAPGAGCWGQGTQVTVSS
25200 | 19700 | 20900 | 22300 | 23700 | 26400 | 26500 | 27300 | 77700 | 49300 | hIL10Ra_VHH14 - hIL2Rg_VHH19, linker GGGS, tag his (bispecific antibody, not shown: small tags and cut ends) QVQLQESGGGSVQAGGSLRLSCGASGYTYSSYCMGWFRQVPGKEREGVAVIDSDGSTSYADSVKGRFTISKDNGKNTLYLQMNSLKPEDTAMYYCAADLGHYRPPCGVLYLGMDYWGKGTQVTVSSGGGSQVQLQESGGGSVQAGGSLRLSCTASGFTFDDREMNWYRQAPGNECELVSTISSDGSTYYADSVKGRFTISQDNAKNTVYLQMDSVKPEDTAVYYCAADFMIAIQAPGAGCWGQGTQVTVSS

same assay, conditions: not given

Granzyme B secretion, CD8 T cells, at 0.001 µM [pg/mL] | Granzyme B secretion, CD8 T cells, at 0.01 µM [pg/mL] | Granzyme B secretion, CD8 T cells, at 0.1 µM [pg/mL] | Granzyme B secretion, CD8 T cells, at 1 µM [pg/mL] | Granzyme B secretion, CD8 T cells, at 10 µM [pg/mL] | Granzyme B secretion, CD8 T cells, at 100 µM [pg/mL] | IFNγ secretion, CD8 T cells, at 0 µM [pg/mL] | IFNγ secretion, CD8 T cells, at 0.0001 µM [pg/mL] | IFNγ secretion, CD8 T cells, at 0.001 µM [pg/mL] | IFNγ secretion, CD8 T cells, at 0.01 µM [pg/mL] | Binder
60900 | 79000 | 108000 | 134000 | 151000 | 93300 | 122000 | 104000 | 113000 | 131000 | hIL10Ra_VHH14 - hIL2Rg_VHH19, linker GGGS, tag Fc (bispecific antibody, not shown: a dimerising Fc or GST) QVQLQESGGGSVQAGGSLRLSCGASGYTYSSYCMGWFRQVPGKEREGVAVIDSDGSTSYADSVKGRFTISKDNGKNTLYLQMNSLKPEDTAMYYCAADLGHYRPPCGVLYLGMDYWGKGTQVTVSSGGGSQVQLQESGGGSVQAGGSLRLSCTASGFTFDDREMNWYRQAPGNECELVSTISSDGSTYYADSVKGRFTISQDNAKNTVYLQMDSVKPEDTAVYYCAADFMIAIQAPGAGCWGQGTQVTVSS
45600 | 48100 | 55300 | 72700 | 84700 | 94600 | 122000 | 96800 | 99600 | 107000 | hIL10Ra_VHH14 - hIL2Rg_VHH19, linker GGGS, tag his (bispecific antibody, not shown: small tags and cut ends) QVQLQESGGGSVQAGGSLRLSCGASGYTYSSYCMGWFRQVPGKEREGVAVIDSDGSTSYADSVKGRFTISKDNGKNTLYLQMNSLKPEDTAMYYCAADLGHYRPPCGVLYLGMDYWGKGTQVTVSSGGGSQVQLQESGGGSVQAGGSLRLSCTASGFTFDDREMNWYRQAPGNECELVSTISSDGSTYYADSVKGRFTISQDNAKNTVYLQMDSVKPEDTAVYYCAADFMIAIQAPGAGCWGQGTQVTVSS

same assay, conditions: not given

IFNγ secretion, CD8 T cells, at 0.1 µM [pg/mL] | IFNγ secretion, CD8 T cells, at 1 µM [pg/mL] | IFNγ secretion, CD8 T cells, at 10 µM [pg/mL] | IFNγ secretion, CD8 T cells, at 100 µM [pg/mL] | IL-1β secretion, LPS treated monocytes, at 0 µM [pg/mL] | IL-1β secretion, LPS treated monocytes, at 0 µM (LPS only) [pg/mL] | IL-1β secretion, LPS treated monocytes, at 0.0001 µM [pg/mL] | IL-1β secretion, LPS treated monocytes, at 0.001 µM [pg/mL] | IL-1β secretion, LPS treated monocytes, at 0.01 µM [pg/mL] | IL-1β secretion, LPS treated monocytes, at 0.1 µM [pg/mL] | Binder
144000 | 166000 | 157000 | 148000 | 6240 | 6880 | 6290 | 5570 | 5260 | 4020 | hIL10Ra_VHH14 - hIL2Rg_VHH19, linker GGGS, tag Fc (bispecific antibody, not shown: a dimerising Fc or GST) QVQLQESGGGSVQAGGSLRLSCGASGYTYSSYCMGWFRQVPGKEREGVAVIDSDGSTSYADSVKGRFTISKDNGKNTLYLQMNSLKPEDTAMYYCAADLGHYRPPCGVLYLGMDYWGKGTQVTVSSGGGSQVQLQESGGGSVQAGGSLRLSCTASGFTFDDREMNWYRQAPGNECELVSTISSDGSTYYADSVKGRFTISQDNAKNTVYLQMDSVKPEDTAVYYCAADFMIAIQAPGAGCWGQGTQVTVSS
114000 | 130000 | 134000 | 134000 | 6240 | 6880 | 6420 | 6640 | 5760 | 6120 | hIL10Ra_VHH14 - hIL2Rg_VHH19, linker GGGS, tag his (bispecific antibody, not shown: small tags and cut ends) QVQLQESGGGSVQAGGSLRLSCGASGYTYSSYCMGWFRQVPGKEREGVAVIDSDGSTSYADSVKGRFTISKDNGKNTLYLQMNSLKPEDTAMYYCAADLGHYRPPCGVLYLGMDYWGKGTQVTVSSGGGSQVQLQESGGGSVQAGGSLRLSCTASGFTFDDREMNWYRQAPGNECELVSTISSDGSTYYADSVKGRFTISQDNAKNTVYLQMDSVKPEDTAVYYCAADFMIAIQAPGAGCWGQGTQVTVSS

same assay, conditions: not given

IL-1β secretion, LPS treated monocytes, at 1 µM [pg/mL] | IL-1β secretion, LPS treated monocytes, at 10 µM [pg/mL] | IL-1β secretion, LPS treated monocytes, at 100 µM [pg/mL] | IL-9 secretion, CD8 T cells, at 0 µM [pg/mL] | IL-9 secretion, CD8 T cells, at 0.0001 µM [pg/mL] | IL-9 secretion, CD8 T cells, at 0.001 µM [pg/mL] | IL-9 secretion, CD8 T cells, at 0.01 µM [pg/mL] | IL-9 secretion, CD8 T cells, at 0.1 µM [pg/mL] | IL-9 secretion, CD8 T cells, at 1 µM [pg/mL] | IL-9 secretion, CD8 T cells, at 10 µM [pg/mL] | Binder
3660 | 4140 | 6480 | 1350 | 1060 | 1120 | 1160 | 1420 | 1780 | 2150 | hIL10Ra_VHH14 - hIL2Rg_VHH19, linker GGGS, tag Fc (bispecific antibody, not shown: a dimerising Fc or GST) QVQLQESGGGSVQAGGSLRLSCGASGYTYSSYCMGWFRQVPGKEREGVAVIDSDGSTSYADSVKGRFTISKDNGKNTLYLQMNSLKPEDTAMYYCAADLGHYRPPCGVLYLGMDYWGKGTQVTVSSGGGSQVQLQESGGGSVQAGGSLRLSCTASGFTFDDREMNWYRQAPGNECELVSTISSDGSTYYADSVKGRFTISQDNAKNTVYLQMDSVKPEDTAVYYCAADFMIAIQAPGAGCWGQGTQVTVSS
5350 | 5950 | 6580 | 1350 | 941 | 1000 | 1120 | 1340 | 1400 | 1680 | hIL10Ra_VHH14 - hIL2Rg_VHH19, linker GGGS, tag his (bispecific antibody, not shown: small tags and cut ends) QVQLQESGGGSVQAGGSLRLSCGASGYTYSSYCMGWFRQVPGKEREGVAVIDSDGSTSYADSVKGRFTISKDNGKNTLYLQMNSLKPEDTAMYYCAADLGHYRPPCGVLYLGMDYWGKGTQVTVSSGGGSQVQLQESGGGSVQAGGSLRLSCTASGFTFDDREMNWYRQAPGNECELVSTISSDGSTYYADSVKGRFTISQDNAKNTVYLQMDSVKPEDTAVYYCAADFMIAIQAPGAGCWGQGTQVTVSS

same assay, conditions: not given

IL-9 secretion, CD8 T cells, at 100 µM [pg/mL] | Binder
1930 | hIL10Ra_VHH14 - hIL2Rg_VHH19, linker GGGS, tag Fc (bispecific antibody, not shown: a dimerising Fc or GST) QVQLQESGGGSVQAGGSLRLSCGASGYTYSSYCMGWFRQVPGKEREGVAVIDSDGSTSYADSVKGRFTISKDNGKNTLYLQMNSLKPEDTAMYYCAADLGHYRPPCGVLYLGMDYWGKGTQVTVSSGGGSQVQLQESGGGSVQAGGSLRLSCTASGFTFDDREMNWYRQAPGNECELVSTISSDGSTYYADSVKGRFTISQDNAKNTVYLQMDSVKPEDTAVYYCAADFMIAIQAPGAGCWGQGTQVTVSS
1710 | hIL10Ra_VHH14 - hIL2Rg_VHH19, linker GGGS, tag his (bispecific antibody, not shown: small tags and cut ends) QVQLQESGGGSVQAGGSLRLSCGASGYTYSSYCMGWFRQVPGKEREGVAVIDSDGSTSYADSVKGRFTISKDNGKNTLYLQMNSLKPEDTAMYYCAADLGHYRPPCGVLYLGMDYWGKGTQVTVSSGGGSQVQLQESGGGSVQAGGSLRLSCTASGFTFDDREMNWYRQAPGNECELVSTISSDGSTYYADSVKGRFTISQDNAKNTVYLQMDSVKPEDTAVYYCAADFMIAIQAPGAGCWGQGTQVTVSS
